Experimental findings from publication PMC6065357, “Structural insights into SorCS2–Nerve Growth Factor complex formation” (Nature Communications, 2018) are described below.

The labels stand for the following.
B1: mouse SorCS2 mature extracellular segment (sSorCS2, residues 117-1072) (receptor)
chain: not shown
notes: SorCS2, mouse, residues 117-1072: the mature extracellular segment, without signal peptide and pro-peptide; Expressed from pUPE107.03 with a cystatin secretion signal peptide; For the unliganded crystal the protein was deglycosylated with EndoHf and treated with trypsin (limited proteolysis); also called SorCS2 ectodomain; wt sSorCS2; source: HEK293-ES (GnTI-) or HEK293-E, secreted, purified …

Data set [1] deals with the molecule itself. Description: crystal structure; sSorCS2 mixed with proNGF 1:1.1, 1 mM calcium chloride; proNGF degraded to NGF in the drop; 0.225 M MES/bis-tris pH 6.6; 3.9 Å.
Data set [2] concerns the target B1. Kind of data set: SPR; IBIS MX96; NGF, proNGF and proBDNF amine-coupled to a P-COOH SensEye sensor; wt and mutant sSorCS2 flowed as analyte; 25 mM HEPES pH 7.4, 150 mM NaCl, 0.005 % Tween 20; 25 °C; equilibrium binding, one site saturation model (two site saturation model for proBDNF). To be noted: both partners purified.

Turning to B1, in data set [1], the “stoichiometry N” value worked out at 2.

B2: pro-brain-derived neurotrophic factor (proBDNF, residues 19-249, furin sites changed to AA) (ligand)
chain: APMKEVNVHGQGNLAYPGVRTHGTLESVNGPRAGSRGLTTTSLADTFEHVIEELLDEDQKVRPNEENHKDADLYTSRVMLSSQVPLEPPLLFLLEEYKNYLDAANMSMRVAAHSDPARRGELSVCDSISEWVTAADKKTAVDMSGGTVTVLEKVPVSKGQLKQYFYETKCNPMGYTKEGCRGIDKRHWNSQCRTTQSYVRALTMDSKKRIGWRFIRIDTSCVCTLTIKRGR
Regarding B2, the Kd in data set [2] came to 0.069 µM.

What is called stoichiometry N is the number of molecules, sites or subunits per partner or assembly. In general, Kd refers to the equilibrium constant for the complex coming apart. Low values mean a tighter complex, high ones a looser complex.
